Data on 3 molecules can be found in article PMC10161063 (Proceedings of the National Academy of Sciences of the …, 2023).

Like-named read-outs stand apart in the source and are kept apart here. Where no end group is shown, it is not given here.

Holding throughout (experiment): ITC
On the technique in general: ITC needs no label: the signal is the heat of the interaction.

For test [1], the target named is T1, Vac8 (full length, residues 1 to 578) (S. cerevisiae, UniProt P39968 1-578).
T1 sequence: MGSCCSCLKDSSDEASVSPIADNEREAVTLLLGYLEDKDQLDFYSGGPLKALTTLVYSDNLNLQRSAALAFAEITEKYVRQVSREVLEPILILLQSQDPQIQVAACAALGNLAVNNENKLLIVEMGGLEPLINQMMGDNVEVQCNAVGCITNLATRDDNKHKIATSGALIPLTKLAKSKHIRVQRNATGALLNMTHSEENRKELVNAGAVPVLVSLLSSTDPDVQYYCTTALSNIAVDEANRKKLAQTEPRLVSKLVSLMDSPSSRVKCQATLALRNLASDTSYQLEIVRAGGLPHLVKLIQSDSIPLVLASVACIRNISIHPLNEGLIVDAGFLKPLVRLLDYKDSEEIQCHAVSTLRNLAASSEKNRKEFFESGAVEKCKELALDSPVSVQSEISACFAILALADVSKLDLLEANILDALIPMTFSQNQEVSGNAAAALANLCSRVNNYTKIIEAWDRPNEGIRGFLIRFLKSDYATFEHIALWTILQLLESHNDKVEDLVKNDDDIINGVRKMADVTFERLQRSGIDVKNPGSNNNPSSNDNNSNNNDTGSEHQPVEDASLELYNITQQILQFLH

The target of test [2] is T2, preformed Vac8–tVac17 complex (ITC sample cell) (S. cerevisiae, UniProt P39968;P25591).
T2 sequence 1: T1 sequence
T2 sequence 2: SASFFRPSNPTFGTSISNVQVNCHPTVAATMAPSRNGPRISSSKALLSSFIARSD

For test [3], the target named is T1, Vac8 (full length, residues 1 to 578). This is another data set of the same source.

B1: Nvj1^229–321 (domain or fragment)
chain: NREKDCSSSSEVESQSKCRKESTAEPDSLSRDTRTTSSLKSSTSFPISFKGSIDLKSLNQPSSLLHIQVSPTKSSNLDAQVNTEQAYSQPFRY
As a reminder, the Kd is the concentration at which binding is half-saturated. Low readings indicate a tighter complex, high ones a looser complex. As to B1, the Kd is 710 nM in test [1] and 10 µM in test [2].

B2: Atg13^567–695 (domain or fragment)
chain: GGNSSTSALNSRRNSLDKSSNKQGMSGLPPIFGGESTSYHHDNKIQKYNQLGVEEDDDDENDRLLNQMGNSATKFKSSISPRSIDSISSSFIKSRIPIRQPYHYSQPTTAPFQAQAKFHKPANKLIDNG
For the molecule B2, the Kd in test [2] came to 9.02 µM. That is a single-digit micromolar value.

B3: Halo-tag-conjugated tVac17 (Vac17 residues 290 to 344) (domain or fragment)
chain: T2 sequence 2
modifications: also: Halo-tag conjugate
With B3, in test [3], binding was put at a Kd of 2530 nM.
